The subject of this series is Escherichia coli TOP10. As to the kind of experiment: shrunken log2 fold change of peptide-encoding DNA abundance (4.5 h post-induction vs induction); higher = less antimicrobial activity (less host growth inhibition). The conditions noted are these: time post-induction: 4.5 h; library: site-saturation at positions 5, 18, 19, 20.
Take RRIRQRPPRLPRPRPRPTDEPRP: the “shrunken log2 fold change” value was -0.131.
The value for RRIRYRPPRLPRPRPRPPKKPRP was -0.0754; that for RRIRIRPPRLPRPRPRPTDSPRP was -0.237; that for RRIRVRPPRLPRPRPRPFIAPRP was -0.448.
The value for RRIRFRPPRLPRPRPRPLLRPRP was 0.0227; that for RRIRGRPPRLPRPRPRPFYHPRP was -0.102.
Next, RRIRCRPPRLPRPRPRPHCHPRP: -0.475; RRIRARPPRLPRPRPRPNEAPRP: 0.269; RRIRMRPPRLPRPRPRPDESPRP: 2.38.
In the case of RRIRARPPRLPRPRPRPFAMPRP, the “shrunken log2 fold change” value is 0.236.
Next, RRIRERPPRLPRPRPRPWPDPRP: -0.0169.
The value for RRIRERPPRLPRPRPRPFMSPRP was -0.0685; that for RRIRVRPPRLPRPRPRPIIQPRP was -0.28; that for RRIRDRPPRLPRPRPRPVKVPRP was -0.0343.
With RRIRDRPPRLPRPRPRPQMHPRP, the “shrunken log2 fold change” value worked out at 0.156.
As for RRIRMRPPRLPRPRPRPNQDPRP, the “shrunken log2 fold change” value was -0.123.
Next, RRIRTRPPRLPRPRPRPMQQPRP: 0.065; RRIRTRPPRLPRPRPRPALPPRP: 0.204.
The value for RRIRDRPPRLPRPRPRPIVCPRP was 0.0446.
In the case of RRIRPRPPRLPRPRPRPMAFPRP, the “shrunken log2 fold change” value came to 0.0207.
The value for RRIRQRPPRLPRPRPRPGECPRP was -0.0823; that for RRIRKRPPRLPRPRPRPTYNPRP was -0.0201; that for RRIRTRPPRLPRPRPRPFVRPRP was -1.25.
The value for RRIRWRPPRLPRPRPRPMIFPRP was -0.302.
The value for RRIRRRPPRLPRPRPRPHRDPRP was 0.546; that for RRIRFRPPRLPRPRPRPRFIPRP was -0.498; that for RRIRKRPPRLPRPRPRPMMPPRP was 0.234.
Regarding RRIRRRPPRLPRPRPRPKMEPRP, the “shrunken log2 fold change” value came to 0.282.
The value for RRIRERPPRLPRPRPRPDYHPRP was -0.486.
The value for RRIRARPPRLPRPRPRPTDEPRP was 0.594; that for RRIRPRPPRLPRPRPRPDLRPRP was -0.124.
The value for RRIRLRPPRLPRPRPRPPQRPRP was 0.26; that for RRIRNRPPRLPRPRPRPDDWPRP was 0.221; that for RRIRIRPPRLPRPRPRPDMYPRP was -0.173.
For RRIRYRPPRLPRPRPRPYQMPRP, the “shrunken log2 fold change” value is -0.344.
Next, RRIRSRPPRLPRPRPRPCSGPRP: -0.0317.
Take RRIRSRPPRLPRPRPRPANGPRP: the “shrunken log2 fold change” value is -0.0714.
Next, RRIRLRPPRLPRPRPRPGWMPRP: 0.0923; RRIRDRPPRLPRPRPRPQPMPRP: -0.0809; RRIRPRPPRLPRPRPRPEEKPRP: -0.0155.
For RRIRFRPPRLPRPRPRPFVNPRP, the “shrunken log2 fold change” value is -1.51.
The value for RRIRVRPPRLPRPRPRPIYRPRP was -0.491; that for RRIRERPPRLPRPRPRPRQQPRP was 0.357; that for RRIRTRPPRLPRPRPRPYNCPRP was -0.168.
The value for RRIRNRPPRLPRPRPRPCDPPRP was -0.114; that for RRIRMRPPRLPRPRPRPWTLPRP was -0.0343; that for RRIRDRPPRLPRPRPRPSRLPRP was 0.0232.
The value for RRIRLRPPRLPRPRPRPYDFPRP was -0.0867.
RRIRIRPPRLPRPRPRPVLVPRP: the “shrunken log2 fold change” value is 0.0259.
RRIRQRPPRLPRPRPRPPYGPRP: the “shrunken log2 fold change” value was -0.408.
Next, RRIRSRPPRLPRPRPRPAQSPRP: 0.234.
The value for RRIRCRPPRLPRPRPRPMEWPRP was 0.0244.
The value for RRIRCRPPRLPRPRPRPPVDPRP was 0.787.
Take RRIRQRPPRLPRPRPRPDWAPRP: the “shrunken log2 fold change” value was -0.012.
The value for RRIRFRPPRLPRPRPRPFYIPRP was -0.489; that for RRIRQRPPRLPRPRPRPRHPPRP was 0.283.
Next, RRIRSRPPRLPRPRPRPPYIPRP: -0.296; RRIRARPPRLPRPRPRPASEPRP: 0.285; RRIRARPPRLPRPRPRPRPLPRP: 0.707.
The value for RRIRCRPPRLPRPRPRPLMRPRP was 0.715; that for RRIRSRPPRLPRPRPRPDLPPRP was -0.246.
For the sequence RRIRGRPPRLPRPRPRPTMGPRP, the “shrunken log2 fold change” value was found to be 0.875.
As to RRIRKRPPRLPRPRPRPVDCPRP, the “shrunken log2 fold change” value is -0.248.
Next, RRIRCRPPRLPRPRPRPPMRPRP: 0.945; RRIRLRPPRLPRPRPRPLHLPRP: -0.21.
Regarding RRIRLRPPRLPRPRPRPFGCPRP, the “shrunken log2 fold change” value is -0.138.
With RRIRSRPPRLPRPRPRPMEFPRP, the “shrunken log2 fold change” value turned out to be 0.00489.
The value for RRIRWRPPRLPRPRPRPQTEPRP was 0.0468.
Next, RRIRTRPPRLPRPRPRPGHNPRP: -0.184; RRIRFRPPRLPRPRPRPDWPPRP: -0.0836.
With RRIRKRPPRLPRPRPRPVHTPRP, the “shrunken log2 fold change” value came to 0.00666.
Turning to RRIRIRPPRLPRPRPRPMLDPRP, the “shrunken log2 fold change” value was 0.0726.
The value for RRIRTRPPRLPRPRPRPHPNPRP was 0.0697; that for RRIRMRPPRLPRPRPRPVFMPRP was -0.202.
The value for RRIRMRPPRLPRPRPRPCYAPRP was -0.105; that for RRIRVRPPRLPRPRPRPLEMPRP was -0.308; that for RRIRARPPRLPRPRPRPTCSPRP was 0.483.
The value for RRIRGRPPRLPRPRPRPFRLPRP was -0.194.
Consider RRIRLRPPRLPRPRPRPDNPPRP, for which the “shrunken log2 fold change” value was -0.231.
The value for RRIRTRPPRLPRPRPRPSFPPRP was -0.261; that for RRIRMRPPRLPRPRPRPLRQPRP was -0.214; that for RRIRWRPPRLPRPRPRPFNRPRP was -0.0167.
RRIRTRPPRLPRPRPRPFYNPRP: the “shrunken log2 fold change” value is -0.755.
Turning to RRIRDRPPRLPRPRPRPYCCPRP, the “shrunken log2 fold change” value was -0.151.
Next, RRIRNRPPRLPRPRPRPICEPRP: 0.0602.
In the case of RRIRFRPPRLPRPRPRPEQQPRP, the “shrunken log2 fold change” value is 0.171.
Next, RRIRKRPPRLPRPRPRPSHGPRP: -0.216; RRIRQRPPRLPRPRPRPDIPPRP: -0.811.
Next, RRIRARPPRLPRPRPRPYELPRP: -0.101; RRIRLRPPRLPRPRPRPSHDPRP: -0.385.
The value for RRIRFRPPRLPRPRPRPWAKPRP was -0.0227.
In the case of RRIRWRPPRLPRPRPRPRRHPRP, the “shrunken log2 fold change” value amounted to 0.559.
The value for RRIRYRPPRLPRPRPRPSMIPRP was -0.77; that for RRIRKRPPRLPRPRPRPHVHPRP was -0.105; that for RRIRHRPPRLPRPRPRPVHEPRP was -0.0609.
The value for RRIRNRPPRLPRPRPRPPDIPRP was -0.341; that for RRIRTRPPRLPRPRPRPPVEPRP was 0.0458; that for RRIRVRPPRLPRPRPRPEKAPRP was -0.114.
The value for RRIRGRPPRLPRPRPRPDTFPRP was 0.43.
Turning to RRIRQRPPRLPRPRPRPHKCPRP, the “shrunken log2 fold change” value is -0.364.
As for RRIRIRPPRLPRPRPRPPFDPRP, the “shrunken log2 fold change” value was -0.0876.
For RRIRGRPPRLPRPRPRPCAKPRP, the “shrunken log2 fold change” value turned out to be 0.661.
The value for RRIRPRPPRLPRPRPRPVSPPRP was 0.0647; that for RRIRLRPPRLPRPRPRPWWFPRP was -0.21; that for RRIRHRPPRLPRPRPRPVAFPRP was -0.187.
The value for RRIRRRPPRLPRPRPRPMTSPRP was -0.00455; that for RRIRERPPRLPRPRPRPSCAPRP was -0.173.
Next, RRIRMRPPRLPRPRPRPNSQPRP: -0.075; RRIRNRPPRLPRPRPRPSHRPRP: 0.0906; RRIRDRPPRLPRPRPRPNSFPRP: -0.0585.
In the case of RRIRGRPPRLPRPRPRPMNHPRP, the “shrunken log2 fold change” value was found to be 0.116.
Next, RRIRVRPPRLPRPRPRPMDEPRP: 0.422; RRIRKRPPRLPRPRPRPLDHPRP: 0.118.
Next, RRIRHRPPRLPRPRPRPNCDPRP: -0.264; RRIRSRPPRLPRPRPRPFCHPRP: -0.162; RRIRIRPPRLPRPRPRPVAPPRP: 0.244.
The value for RRIRKRPPRLPRPRPRPIEFPRP was 0.0427; that for RRIRLRPPRLPRPRPRPGDIPRP was -0.385; that for RRIRSRPPRLPRPRPRPVAEPRP was 1.28.
For the sequence RRIRCRPPRLPRPRPRPFCWPRP, the “shrunken log2 fold change” value was 0.31.
Next, RRIRQRPPRLPRPRPRPCIYPRP: -0.204; RRIRTRPPRLPRPRPRPYRHPRP: -0.0901; RRIRWRPPRLPRPRPRPRHGPRP: -0.192.
Next, RRIRRRPPRLPRPRPRPPHMPRP: 1.11.
Next, RRIRGRPPRLPRPRPRPRYYPRP: -0.0701.

For the origin of these results see the supplement of paper PMC9112550, “Optimization of the antimicrobial peptide Bac7 by deep mutational scanning” (BMC Biology, 2022).
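Further: peptides expressed intracellularly from a pBAD plasmid library in pooled LB shake-flask culture, induced with 0.3% L-arabinose, DNA abundance read by NGS, three biological replicates, DESeq2 with apeglm shrinkage.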
